Data on 1 protein can be found in article PMC6497250, “High-resolution cryo-EM structures of the E. coli hemolysin ClyA oligomers” (PLoS ONE, 2019).

Where “and” joins values, the source holds several entries; their conditions need not be identical. Identical values can stand only once.

The stoichiometry N is a count of units in the complex or per binding partner.

Data set [1] concerns the molecule itself. Description: cryo-EM structure; sample #1: pore complexes in DDM, all SEC fractions pooled; Talos Arctica 200 kV; maps at 6.8 Å and 7.5 Å.
Data set [2] concerns the molecule itself. Description: cryo-EM structure; sample #3: ClyA 2.5 mg/mL with 0.5% DDM and 5 mM DTT at 4°C overnight, then SEC in 25 mM Tris-HCl pH 8.0, 150 mM NaCl, 0.05% digitonin, 2 mM DTT; Titan Krios 300 kV; C12, C13, C14 classes.
Data set [3] deals with the molecule itself. Description: negative staining EM; ClyA incubated with 1% digitonin overnight, fractions from SEC (Superose 6 10/300 GL); intermediate state.
Data set [4] concerns the molecule itself. The data set is described as follows: cryo-EM structure; digitonin-induced intermediate state; Talos Arctica; 2D class averages and a map at 16 Å.

B1: E. coli cytolysin A (ClyA) with complete N-terminal purification tag (natural protein)
chain: MTEIVADKTVEVVKNAIETADGALDLYNKYLDQVIPWQTFDETIKELSRFKQEYSQAASVLVGDIKTLLMDSQDKYFEATQTVYEWCGVATQLLAAYILLFDEYNEKKASAQKDILIKVLDDGITKLNEAQKSLLVSSQSFNNASGKLLALDSQLTNDFSEKSSYFQSQVDKIRKEAYAGAAAGVVAGPFGLIISYSIAAGVVEGKLIPELKNKLKSVQNFFTTLSNTVKQANKDIDAAKLKLTTEIVAIGEIKTETETTRFYVDYDDLMLSLLKEAAKKMINTCNEYQKRHGKKTLFEVPEV
notes: E. coli cytolysin A (ClyA), cDNA amplified from BL21 (DE3), mutations and deletions removed by two-step PCR; final plasmid has A248V compared to UniProtKB P77335; The soluble protein is a monomer; the oligomers (12, 13, 14, about 3) form with detergent; also called hemolysin (HlyE); silent hemolysin A (SheA); source: E. coli BL21 (DE3), purified (Ni2+-NTA, Mono Q anion exchange); not shown: His6, …
As to B1, the “stoichiometry N” value was 12 and 13 in data set [1]; 14 in data set [2]; around 3 in data set [3]; 3 and 4 in data set [4].
